Here are results for nine variants from IntAct's records for PubMed 19855379.

B1: Protein phosphatase 2C 56 (Arabidopsis thaliana (Mouse-ear cress)), P49597 (parent)
chain: MEEVSPAIAGPFRPFSETQMDFTGIRLGKGYCNNQYSNQDSENGDLMVSLPETSSCSVSGSHGSESRKVLISRINSPNLNMKESAAADIVVVDISAGDEINGSDITSEKKMISRTESRSLFEFKSVPLYGFTSICGRRPEMEDAVSTIPRFLQSSSGSMLDGRFDPQSAAHFFGVYDGHGGSQVANYCRERMHLALAEEIAKEKPMLCDGDTWLEKWKKALFNSFLRVDSEIESVAPETVGSTSVVAVVFPSHIFVANCGDSRAVLCRGKTALPLSVDHKPDREDEAARIEAAGGKVIQWNGARVFGVLAMSRSIGDRYLKPSIIPDPEVTAVKRVKEDDCLILASDGVWDVMTDEEACEMARKRILLWHKKNAVAGDASLLADERRKEGKDPAAMSAAEYLSKLAIQRGSKDNISVVVVDLKPRRKLKSKPLN
B2: Abscisic acid receptor PYL1 (Arabidopsis thaliana (Mouse-ear cress)), Q8VZS8 (parent)
chain: MANSESSSSPVNEEENSQRISTLHHQTMPSDLTQDEFTQLSQSIAEFHTYQLGNGRCSSLLAQRIHAPPETVWSVVRRFDRPQIYKHFIKSCNVSEDFEMRVGCTRDVNVISGLPANTSRERLDLLDDDRRVTGFSITGGEHRLRNYKSVTTVHRFEKEEEEERIWTVVLESYVVDVPEGNSEEDTRLFADTVIRLNLQKLASITEAMNRNNNNNNSSQVR

Variants of B1 are the subject of one experiment. As to conditions: with pyl1_arath PYL1, Q8VZS8.
Turning to E142A, the “effect of a mutation on the interaction” value was “decreasing interaction”.

Take W300A: the “effect of a mutation on the interaction” value is “disrupting interaction”.

Regarding Y319A, the “effect of a mutation on the interaction” value is recorded as “decreasing interaction”.

On to I298A, for which the “effect of a mutation on the interaction” value is “disrupting interaction”.

Consider R304A, for which the “effect of a mutation on the interaction” value is listed as “disrupting interaction”.

Variants of B2 are the subject of a further experiment. Particulars: with ABI1, P49597.
In the case of H142A, the “effect of a mutation on the interaction” value was “disrupting interaction”.

With F189A, the “effect of a mutation on the interaction” value is “decreasing interaction”.

R143A: the “effect of a mutation on the interaction” value is listed as “decreasing interaction”.

Turning to L144A, the “effect of a mutation on the interaction” value was “disrupting interaction”.
